Data from US9969998B2, “Compositions of adenosine deaminase-2 (ADA2), variants thereof and methods of using same” (Halozyme, Inc., priority 2014, dated 2018).

Legend:
[1] = Adenosine deaminase (ADA) activity assay; assay type: biochemical
Source text: The adenosine deaminase (ADA; EC 3.5.4.4) activity of any of the ADA2 described herein, including a wildtype, variant or conjugate, can be assessed using methods well known in the art. ADA activity assays commonly measure, directly or indirectly, the rate of production a product of the enzymatic reaction. For example, the production of inosine or ammonia can be directly or indirectly measured. In other examples, the decrease of the substrate of the enzyme, e.g., adenosine or 2-deoxyadenosine, is measured. The decrease of the substrate, or the increase of the product, can be measured directly by spectrophotometry, or indirectly, by subsequent enzymatic or oxidation-reduction reactions that use chromogenic substrates or change the absorbance spectra of the reaction.
For example, some commercially available adenosine deaminase (ADA) assays, such as ADA assay kits available from BQ Kits (San Diego, Calif.; Cat. No. BQ014EALD) and Diazyme (Poway, C A; Cat. No. DZ117A-K), utilize colorimetric substrate and spectrophotometric reading to determine the conversion of adenosine to inosine by ADA enzymes. In these assays, the production of inosine is detected by multi-step enzymatic reactions that produce a chromogenic dye. […] The change in absorbance at 556 nm (ΔA556) over time, at 37° C., is measured. […]

[2] = Daddona and Kelley (1981); cited from earlier work

B1: ADA2: wild-type human adenosine deaminase 2, mature form SEQ ID NO:5, homodimer (protein, listed as Homo sapiens)
chain: IDETRAHLLLKEKMMRLGGRLVLNTKEELANERLMTLKIAEMKEAMRTLIFPPSMHFFQAKHLIERSQVFNILRMMPKGAALHLHDIGIVTMDWLVRNVTYRPHCHICFTPRGIMQFRFAHPTPRPSEKCSKWILLEDYRKRVQNVTEFDDSLLRNFTLVTQHPEVIYTNQNVVWSKFETIFFTISGLIHYAPVFRDYVFRSMQEFYEDNVLYMEIRARLLPVYELSGEHHDEEWSVKTYQEVAQKFVETHPEFIGIKIIYSDHRSKDVAVIAESIRMAMGLRIKFPTVVAGFDLVGHEDTGHSLHDYKEALMIPAKDGVKLPYFFHAGETDWQGTSIDRNILDALMLNTTRIGHGFALSKHPAVRTYSWKKDIPIEVCPISNQVLKLVSDLRNHPVATLMATGHPMVISSDDPAMFGAKGLSYDFYEVFMGIGGMKADLRTLKQLAMNSIKYSTLLESEKNTFMEIWKKRWDKFIADVATK
modifications: ADA2 mature protein
[1]
  Km of ADA2 for adenosine relative to that of ADA1: approximately 100 times
[2]
  stability at higher temperature: substantially more stable at higher temperature compared to ADA1
